Measurements: patent US20110059095A1 (Regeneron, published 2011)
Numbering of substitutions follows the chain as printed.

Assays:
[1] = biological target: T1, Peptide E (mouse PAR-2), unbiotinylated (Mouse (Mus musculus)); assay: peptide ELISA titration; ELISA titration, antibody 13.3 nM to 0.22 pM, sigmoidal fit
T1 construct: also called Peptide E No Biotin
T1 peptide: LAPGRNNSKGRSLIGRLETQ
Procedure: Anti-PAR-2 antibodies were tested for their ability to bind to the PAR-2 peptides. Various PAR-2 Peptides (Table 3) were coated onto 96-well plates at a concentration of 2 μg/ml and incubated overnight followed by blocking in a suitable blocking agent for one hour. […] Purified anti-PAR-2 antibodies were added to the plate coated with PAR-2 peptides to a final concentration ranging from 0.2 to 2.0 μg/ml and incubated for one hour at room temperature. Detection of bound antibodies was determined with Horse-Radish Peroxidase (HRP) conjugated anti-mouse or human IgG (Jackson Immuno Research Lab, West Grove, Pa.) and developed by standard colorimetric response using tetramethylbenzidine (TMB) substrate. Absorbance was read at OD₄₅₀ for 0.1 second.
In another experiment, selected anti-PAR-2 antibodies cloned onto human IgG4 were tested for binding to unbiotinylated and biotinylated forms of PAR-2 peptides (Peptides A, E, F and G; as described above). […] Absorbance values at 450 nm were analyzed using a sigmoidal dose-response model in GraphPad Prism (GraphPad Software, Inc., La Jolla, Calif.) and EC₅₀ values were reported (Table 9). EC₅₀ values are defined as the antibody concentration required to achieve 50% maximal binding to PAR-2 peptide.

[2] = biological target: T2, C-terminal biotinylated human PAR-2 peptide SEQ ID NO:876 (Ile-39 to Ala) (human, not fully specified; C-terminal biotin (K-B)); assay: alanine scan by biolayer interferometry (Octet Red): C-terminal biotin peptide on streptavidin tips, 200 nM antibody; T1/2 relative to wild-type peptide SEQ ID NO:871
T2 construct: alanine-scan mutant
T2 peptide: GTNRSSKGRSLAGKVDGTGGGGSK
Procedure: (§1) In order to more particularly identify the amino acids of PAR-2 with which the PAR-2 antibodies interact, an alanine scanning study was carried out using peptides comprising the activating PAR-2 protease cleavage site.
(§2) The ability of each peptide mutant to bind to PAR-2 antibodies was measured using biolayer interferometry (Octet Red; ForteBio). Each peptide (2.5 μg/ml) was captured on streptavidin coated biosensor tips (Octet SA sensor) for 10 seconds. To measure binding and dissociation between each peptide and PAR-2 antibody, the peptide-coated biosensors were contacted with 200 nM solutions of PAR-2 antibodies for 5 minutes (binding) followed by transfer to buffer with no antibody for 10 min (dissociation). […] The results are expressed as percent binding and percent T_{1/2} relative to WT peptide (Tables 24-28).

[3] = biological target: T3, C-terminal biotinylated human PAR-2 peptide SEQ ID NO:880 (Asp-43 to Ala) (human, not fully specified; C-terminal biotin (K-B)); assay: as above
T3 construct: alanine-scan mutant
T3 peptide: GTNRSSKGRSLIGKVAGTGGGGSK
Procedure: as §1, §2

[4] = biological target: T4, C-terminal biotinylated human PAR-2 peptide SEQ ID NO:874 (Ser-37 to Ala) (human, not fully specified; C-terminal biotin (K-B)); assay: as above
T4 construct: alanine-scan mutant
T4 peptide: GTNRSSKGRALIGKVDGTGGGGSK
Procedure: as §1, §2

[5] = biological target: T5, C-terminal biotinylated human PAR-2 peptide SEQ ID NO:873 (Arg-36 to Ala) (human, not fully specified; C-terminal biotin (K-B)); assay: as above
T5 construct: alanine-scan mutant
T5 peptide: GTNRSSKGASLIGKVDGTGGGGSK
Procedure: as §1, §2

[6] = biological target: T6, C-terminal biotinylated human PAR-2 peptide SEQ ID NO:879 (Val-42 to Ala) (human, not fully specified; C-terminal biotin (K-B)); assay: as above
T6 construct: alanine-scan mutant
T6 peptide: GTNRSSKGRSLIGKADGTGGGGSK
Procedure: as §1, §2

[7] = biological target: T7, C-terminal biotinylated human PAR-2 peptide SEQ ID NO:875 (Leu-38 to Ala) (human, not fully specified; C-terminal biotin (K-B)); assay: as above
T7 construct: alanine-scan mutant
T7 peptide: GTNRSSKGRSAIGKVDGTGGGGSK
Procedure: as §1, §2

[8] = biological target: T8, C-terminal biotinylated human PAR-2 peptide SEQ ID NO:872 (Gly-35 to Ala) (human, not fully specified; C-terminal biotin (K-B)); assay: as above
T8 construct: alanine-scan mutant
T8 peptide: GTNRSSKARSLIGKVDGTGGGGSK
Procedure: as §1, §2

[9] = biological target: T9, C-terminal biotinylated human PAR-2 peptide SEQ ID NO:882 (Thr-45 to Ala) (human, not fully specified; C-terminal biotin (K-B)); assay: as above
T9 construct: alanine-scan mutant
T9 peptide: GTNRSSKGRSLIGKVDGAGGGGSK
Procedure: as §1, §2

[10] = biological target: T10, C-terminal biotinylated human PAR-2 peptide SEQ ID NO:878 (Lys-41 to Ala) (human, not fully specified; C-terminal biotin (K-B)); assay: as above
T10 construct: alanine-scan mutant
T10 peptide: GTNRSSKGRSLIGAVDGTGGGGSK
Procedure: as §1, §2

[11] = biological target: T11, C-terminal biotinylated human PAR-2 peptide SEQ ID NO:877 (Gly-40 to Ala) (human, not fully specified; C-terminal biotin (K-B)); assay: as above
T11 construct: alanine-scan mutant
T11 peptide: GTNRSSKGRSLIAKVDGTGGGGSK
Procedure: as §1, §2

B1: H4H579P (antibody, human IgG4, V domains shown)
VH: QVQLVESGGGVVQPGRSLRLSCVASGFTFSRYGMHWVRQAPGKGLEWLIVISYDGINKYYADSVKGRFTISRDNSKNTVYLQMNSLRAEDTGVYYCAKGDFWSGYFDYWGQGTLVTVSS
VL: DIVMTQTPLSSPVTLGQPASISCRSSQSLVHSDGNTYLSWLHQRPGQPPRLLIYKISNRFSGVPDRFSGSGAGTDFTLQISRVEAEDVGIYYCMQGTQFPTFGGGTKVEIK
notes: also called H1H579P variable regions
Binder B1 has an EC50 [1] of 0.713 nM.

B2: H4H585P (antibody, human IgG4, V domains shown)
VH: B1 VH with G92A
VL: B1 VL
notes: also called H1H585P variable regions
For B2, the EC50 [1] was 0.308 nM.

B3: H4H581P (antibody, human IgG4, V domains shown)
VH: B1 VH with M34I, L48V, G92A
VL: B1 VL with G96A
notes: also called mAb H4H581P; H1H581P variable regions
B3 was tested, and the “percent of T1/2 relative to wild-type peptide (average of duplicate experiments)” value [2] was 0.1%, the “percent of T1/2 relative to wild-type peptide (average of duplicate experiments)” value [3] was 20% and the “percent of T1/2 relative to wild-type peptide (average of duplicate experiments)” value [4] was 5%. For the same binder, the “percent of T1/2 relative to wild-type peptide (average of duplicate experiments)” value [5] was 106%, the “percent of T1/2 relative to wild-type peptide (average of duplicate experiments)” value [6] was 1% and the “percent of T1/2 relative to wild-type peptide (average of duplicate experiments)” value [7] was 0.2%. For the same binder, the “percent of T1/2 relative to wild-type peptide (average of duplicate experiments)” value [8] was 118%, the “percent of T1/2 relative to wild-type peptide (average of duplicate experiments)” value [9] was 112% and the “percent of T1/2 relative to wild-type peptide (average of duplicate experiments)” value [10] was 56%. For the same binder, the “percent of T1/2 relative to wild-type peptide (average of duplicate experiments)” value [11] was 24%.

B4: H4H588N (antibody, human IgG4, V domains shown)
VH: EVQLLESGGGLVQPGGSLRLSCAASGFTFSSYAMTWVRQAPGKGLYWVSAISGGRGSAYYADSVKGRFTISRDNSKNTLYLQMNSLRAEDTAVYYCAKEGDSGYDLAYWGRGTLVTVSS
VL: DIQMTQSPSSLSASVGDRVTITCRARQGISNNLAWLQQKPGKAPKSLIYAASSLQSGIPSKFSGSGSGTYFTLTISSLQPEDFATYYCQQYKSSPLTFGGGTKVEIK
notes: also called H2M588N variable regions
B4 was tested, and the “percent of T1/2 relative to wild-type peptide (average of duplicate experiments)” value [2] was 22%, the “percent of T1/2 relative to wild-type peptide (average of duplicate experiments)” value [3] was 4.5% and the “percent of T1/2 relative to wild-type peptide (average of duplicate experiments)” value [4] was 85%. The “percent of T1/2 relative to wild-type peptide (average of duplicate experiments)” value [5] was 140%, the “percent of T1/2 relative to wild-type peptide (average of duplicate experiments)” value [6] was 0.5% and the “percent of T1/2 relative to wild-type peptide (average of duplicate experiments)” value [7] was 71%. The “percent of T1/2 relative to wild-type peptide (average of duplicate experiments)” value [8] was 177%, the “percent of T1/2 relative to wild-type peptide (average of duplicate experiments)” value [9] was 64% and the “percent of T1/2 relative to wild-type peptide (average of duplicate experiments)” value [10] was 84%. The “percent of T1/2 relative to wild-type peptide (average of duplicate experiments)” value [11] was 0.5%.
